Reference: IntAct's records for PubMed 20562859

Assays:
fyco1_human FYCO1 = molecular target: T1, fyco1_human FYCO1 (UniProt Q9BQS8)
T1 sequence: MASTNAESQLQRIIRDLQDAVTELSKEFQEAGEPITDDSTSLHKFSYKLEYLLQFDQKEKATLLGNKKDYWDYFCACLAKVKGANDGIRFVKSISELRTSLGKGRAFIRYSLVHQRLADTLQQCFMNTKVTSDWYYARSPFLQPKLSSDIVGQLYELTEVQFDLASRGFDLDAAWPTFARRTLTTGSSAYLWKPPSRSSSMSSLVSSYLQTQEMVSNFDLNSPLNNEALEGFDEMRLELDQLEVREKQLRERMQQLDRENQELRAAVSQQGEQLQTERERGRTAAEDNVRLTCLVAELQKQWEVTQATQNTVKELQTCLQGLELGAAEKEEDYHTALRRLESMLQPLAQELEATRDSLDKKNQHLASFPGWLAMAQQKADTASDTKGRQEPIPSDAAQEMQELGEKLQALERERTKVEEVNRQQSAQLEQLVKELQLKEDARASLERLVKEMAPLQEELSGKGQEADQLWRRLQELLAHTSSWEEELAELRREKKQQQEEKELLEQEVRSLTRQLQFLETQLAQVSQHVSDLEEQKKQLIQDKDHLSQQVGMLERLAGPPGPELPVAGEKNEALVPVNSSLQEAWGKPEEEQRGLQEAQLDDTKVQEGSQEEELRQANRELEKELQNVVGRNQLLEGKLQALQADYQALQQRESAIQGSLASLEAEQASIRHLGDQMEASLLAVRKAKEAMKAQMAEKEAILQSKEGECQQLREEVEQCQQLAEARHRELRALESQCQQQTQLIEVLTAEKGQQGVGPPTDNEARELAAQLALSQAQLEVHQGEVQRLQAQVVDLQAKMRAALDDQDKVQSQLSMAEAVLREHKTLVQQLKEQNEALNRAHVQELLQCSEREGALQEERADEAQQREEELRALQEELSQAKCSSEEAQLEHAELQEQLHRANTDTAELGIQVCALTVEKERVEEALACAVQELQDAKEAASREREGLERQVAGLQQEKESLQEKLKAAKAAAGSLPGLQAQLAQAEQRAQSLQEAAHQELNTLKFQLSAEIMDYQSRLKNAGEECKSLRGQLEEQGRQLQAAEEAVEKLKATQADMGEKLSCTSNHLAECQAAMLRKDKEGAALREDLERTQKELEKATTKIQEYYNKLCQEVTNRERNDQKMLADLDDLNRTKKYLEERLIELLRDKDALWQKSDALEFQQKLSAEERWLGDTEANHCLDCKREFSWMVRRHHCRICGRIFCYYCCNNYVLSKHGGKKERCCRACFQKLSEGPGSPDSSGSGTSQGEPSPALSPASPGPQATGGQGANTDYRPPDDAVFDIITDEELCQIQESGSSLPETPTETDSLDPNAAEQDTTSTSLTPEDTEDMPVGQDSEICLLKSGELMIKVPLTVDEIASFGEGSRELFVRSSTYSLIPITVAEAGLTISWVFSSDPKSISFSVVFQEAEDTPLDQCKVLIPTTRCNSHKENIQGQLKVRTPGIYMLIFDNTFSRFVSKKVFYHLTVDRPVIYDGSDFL

rasf1_human RASSF1 = molecular target: T2, rasf1_human RASSF1 (UniProt Q9NS23)
T2 sequence: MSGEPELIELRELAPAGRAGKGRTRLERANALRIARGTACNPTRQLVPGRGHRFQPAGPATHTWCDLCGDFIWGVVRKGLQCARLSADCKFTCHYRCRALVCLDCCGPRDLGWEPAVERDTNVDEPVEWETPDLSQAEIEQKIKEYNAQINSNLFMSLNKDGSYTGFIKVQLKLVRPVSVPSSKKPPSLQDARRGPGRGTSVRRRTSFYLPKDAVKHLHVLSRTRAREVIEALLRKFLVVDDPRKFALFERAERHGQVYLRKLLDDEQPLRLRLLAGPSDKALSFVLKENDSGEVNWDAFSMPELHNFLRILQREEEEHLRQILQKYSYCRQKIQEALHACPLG

fan_human NSMAF = fan_human NSMAF (UniProt Q92636)
fnip1_human FNIP1 = molecular target: T3, fnip1_human FNIP1 (UniProt Q8TF40)
T3 sequence: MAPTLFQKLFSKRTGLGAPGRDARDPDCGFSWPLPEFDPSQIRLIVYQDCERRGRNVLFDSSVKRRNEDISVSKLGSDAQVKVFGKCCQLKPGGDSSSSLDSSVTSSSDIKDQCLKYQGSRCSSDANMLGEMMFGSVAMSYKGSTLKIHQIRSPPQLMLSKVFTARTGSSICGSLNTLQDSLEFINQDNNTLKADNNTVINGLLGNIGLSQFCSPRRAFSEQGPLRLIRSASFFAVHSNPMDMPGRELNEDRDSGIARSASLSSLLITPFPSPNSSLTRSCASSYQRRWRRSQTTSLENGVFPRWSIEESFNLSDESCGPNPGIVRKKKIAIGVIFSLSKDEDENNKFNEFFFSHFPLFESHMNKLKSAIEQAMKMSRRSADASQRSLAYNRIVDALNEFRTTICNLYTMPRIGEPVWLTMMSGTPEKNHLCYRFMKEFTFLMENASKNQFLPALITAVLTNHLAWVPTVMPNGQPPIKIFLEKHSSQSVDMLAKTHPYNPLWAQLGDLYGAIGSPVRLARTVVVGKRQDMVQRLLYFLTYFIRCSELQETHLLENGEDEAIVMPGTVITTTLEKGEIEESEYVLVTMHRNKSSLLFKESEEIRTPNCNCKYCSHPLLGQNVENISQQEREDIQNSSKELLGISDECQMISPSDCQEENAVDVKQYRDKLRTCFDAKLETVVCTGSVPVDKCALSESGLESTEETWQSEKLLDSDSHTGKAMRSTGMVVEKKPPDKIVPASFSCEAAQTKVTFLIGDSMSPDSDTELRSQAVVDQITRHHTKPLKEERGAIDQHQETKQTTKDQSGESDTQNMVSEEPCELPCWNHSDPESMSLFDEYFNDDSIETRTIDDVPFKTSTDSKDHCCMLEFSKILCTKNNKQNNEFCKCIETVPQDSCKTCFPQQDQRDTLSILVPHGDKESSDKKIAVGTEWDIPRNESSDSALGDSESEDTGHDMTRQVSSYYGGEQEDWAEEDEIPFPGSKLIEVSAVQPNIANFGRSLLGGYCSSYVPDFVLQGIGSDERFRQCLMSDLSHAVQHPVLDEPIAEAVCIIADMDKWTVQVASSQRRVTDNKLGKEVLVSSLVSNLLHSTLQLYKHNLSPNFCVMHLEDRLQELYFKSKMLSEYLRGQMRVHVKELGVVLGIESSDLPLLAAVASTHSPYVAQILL

Sequence of fan_human NSMAF (Q92636 whole entry): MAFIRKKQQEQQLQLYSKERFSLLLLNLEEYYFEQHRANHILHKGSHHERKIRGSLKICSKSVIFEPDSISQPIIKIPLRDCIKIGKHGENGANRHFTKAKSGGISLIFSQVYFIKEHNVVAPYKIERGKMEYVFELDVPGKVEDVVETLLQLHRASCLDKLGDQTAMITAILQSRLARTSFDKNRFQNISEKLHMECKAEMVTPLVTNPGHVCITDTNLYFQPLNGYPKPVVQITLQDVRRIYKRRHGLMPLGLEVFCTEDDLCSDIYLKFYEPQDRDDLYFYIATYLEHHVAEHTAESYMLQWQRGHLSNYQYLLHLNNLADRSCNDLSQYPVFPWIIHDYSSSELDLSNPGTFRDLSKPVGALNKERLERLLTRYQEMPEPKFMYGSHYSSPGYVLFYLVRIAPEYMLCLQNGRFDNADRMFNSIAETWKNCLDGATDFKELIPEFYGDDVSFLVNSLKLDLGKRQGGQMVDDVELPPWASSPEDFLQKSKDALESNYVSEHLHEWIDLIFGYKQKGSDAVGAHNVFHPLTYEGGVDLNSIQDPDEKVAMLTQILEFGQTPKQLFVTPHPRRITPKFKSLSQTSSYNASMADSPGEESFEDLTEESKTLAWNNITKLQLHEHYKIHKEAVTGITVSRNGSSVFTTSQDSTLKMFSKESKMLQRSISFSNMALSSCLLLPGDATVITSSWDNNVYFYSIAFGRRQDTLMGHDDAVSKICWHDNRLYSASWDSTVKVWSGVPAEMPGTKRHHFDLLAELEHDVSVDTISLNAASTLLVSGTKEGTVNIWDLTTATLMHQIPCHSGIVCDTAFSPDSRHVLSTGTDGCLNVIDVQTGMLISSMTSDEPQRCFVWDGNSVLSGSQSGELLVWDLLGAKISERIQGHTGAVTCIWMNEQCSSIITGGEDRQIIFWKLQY

| Substance | effect of a mutation on the interaction (fyco1_human FYCO1) | effect of a mutation on the interaction (rasf1_human RASSF1) | effect of a mutation on the interaction (fan_human NSMAF) | effect of a mutation on the interaction (fnip1_human FNIP1) |
| --- | --- | --- | --- | --- |
| Microtubule-associated protein 1 light chain 3 beta (Homo sapiens) (from UniProt Q9GZQ8) R69A | decreasing interaction | decreasing interaction | disrupting interaction |  |
| Microtubule-associated protein 1 light chain 3 beta (Homo sapiens) (from UniProt Q9GZQ8) F52A;L53A |  |  |  | increasing interaction |
